From FireProtDB (doi:10.1016/j.bpc.2007.01.006)
Several values for one entry are separate records, joined by “and”; a condition that tells them apart may be missing. Equal entries are not always repeated.

Details: Bos taurus, pH 2, 25 °C, Glycine-HCl 0.05 M, KCl 0.1 M, reversible: Yes, whole UniProt chain shown
[1] = GdnHCl, Fluorescence, transition: 3

B1: Beta-lactoglobulin wild type, P02754 (protein)
chain: MKCLLLALALTCGAQALIVTQTMKGLDIQKVAGTWYSLAMAASDISLLDAQSAPLRVYVEELKPTPEGDLEILLQKWENGECAQKKIIAEKTKIPAVFKIDALNENKVLVLDTDYKKYLLFCMENSAEPEQSLACQCLVRTPEVDDEALEKFDKALKALPMHIRLSFNPTQLEEQCHI
With B1 the denaturant m value [1] was 4.97 kcal/mol/M and 4.1 kcal/mol/M, the “denaturant midpoint (higher = more stable)” value (“denaturant midpoint” below) [1] was 1.44 M and 3.14 M and the unfolding free energy [1] was 7.15 kcal/mol and 4.88 kcal/mol. For the same protein, the denaturant m value (Urea, Absorbance) was 1.62 kcal/mol/M, the “denaturant midpoint” value (Urea, Absorbance) was 5.3 M and the unfolding free energy (Urea, Absorbance) was 8.58 kcal/mol. The denaturant m value (Urea, CD) was 1.06 kcal/mol/M and 1.08 kcal/mol/M and 1.1 kcal/mol/M, the “denaturant midpoint” value (Urea, CD) was 6 M and 6.34 M and 6.55 M and the unfolding free energy (Urea, CD) was 6.41 kcal/mol and 6.84 kcal/mol and 7.17 kcal/mol. For the same protein, the denaturant m value (Urea, Fluorescence) was 1.56 kcal/mol/M, the “denaturant midpoint” value (Urea, Fluorescence) was 5.42 M and the unfolding free energy (Urea, Fluorescence) was 8.41 kcal/mol.
